Source: patent publication US20020103111A1 (Takeda / Millennium, published 2002)
Bridge positions count the residues as written; N and C are the ends. Ends that are not written are not given here. R1 = not defined here

B1: Ac-Cys*-Gly-Leu-Asp-Thr-Ser-Leu-Gly-Cys* (peptide)
peptide: Ac-CGLDTSLGC
modifications: disulfide 1-9; not fully specified (C-terminus); printed as Ac-Cys*-Gly-Leu-Asp-Thr-Ser-Leu-Gly-Cys*
notes: also called Ex No 5; 00145-1B
B2: R1-Leu-Asp-Thr-Ser-Leu, L# 1276 (Table 4) (peptide)
peptide: R1-LDTSL
modifications: reading uncertain; also: printed as R1-Leu-Asp-Thr-Ser-Leu
notes: not tied

Tests used:
human α4β7 integrin [1] = biological target: T1, human α4β7 integrin (human, UniProt P13612 34-1032; P26010 20-798); experiment: inhibition of HUT 78 cell adhesion to murine MAdCAM-1/mCk
T1 construct: whole, on cells; assays run with Mn++; also called α4β7 on HUT 78 cells; α4β7 on RPMI 8866 cells
Description: The assay was performed in a 96-well format. Plates were coated overnight at 4° C. with 53 μl/well of a 5 μg/mL solution of rat anti-mCk in carbonate buffer. The plates were blocked for 1 hour at 37° C. with 100 μL/well of 1% BSA in PBS. The BSA/PBS solution was removed, and 50 μL of MAdCAM-mCk supernatant was added neat to each well. The assay was conducted under conditions in which capture antibody was the limiting reagent.
Cell adhesion was measured in the presence or absence of compounds. The compounds were resuspended in 100% DMSO, subsequently diluted 1:10 in water, and finally diluted again 1:10 in the assay: 50 μL of 2X Assay Bufler, 30 μL water, 20 μL of compound were added to each well.
Over this range, Four different concentrations were tested in duplicate.

human α4β7 integrin [2] = biological target: T1, human α4β7 integrin; experiment: inhibition of RPMI 8866 cell adhesion to huMAdCAM-1-Ig

Row | Binder | IC50 (human α4β7 integrin [1]) | IC50 (human α4β7 integrin [2])
1 | B1 | 266 µM | –
2 | B2 | – | 2.7 µM
